The results in this text go back to patent publication US20110159009A1.

For the test, the target named is mouse VEGF-A (mouse) (UniProt Q00731). Put plainly: cell-based or functional assay.

Bounds are passed on as bounds.

Chain of mouse VEGF-A (mouse) (Q00731 other isoform, or with tags, fused parts or gaps limits assumed): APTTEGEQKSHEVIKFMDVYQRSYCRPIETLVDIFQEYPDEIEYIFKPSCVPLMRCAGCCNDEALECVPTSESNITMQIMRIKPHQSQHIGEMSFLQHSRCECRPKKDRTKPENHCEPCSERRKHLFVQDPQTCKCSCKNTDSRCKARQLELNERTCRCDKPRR

In the case of Bevacizumab (BV) (antibody), the BRME proliferation (Alamar blue) is > 1500 nM.
